Test results taken from patent publication US20040010124A1 (MacroGenics, published 2004).

B1: hu3G8VH-3/hu3G8VL-1 (antibody, V domains shown)
VH: QVTLRESGPALVKPTQTLTLTCTFSGFSLRTSGMGVGWIRQPPGKALEWLAHIWWDDDKRYNPALKSRLTISKDTSKNQVVLTMTNMDPVDTATYYCARINPAWFAYWGQGTLVTVSS
VL: DIVMTQSPDSLAVSLGERATINCKASQSVDFDGDSFMNWYQQKPGQPPKLLIYTTSNLESGVPDRFSGSGSGTDFTLTISSLQAEDVAVYYCQQSNEDPYTFGQGTKLEIK
notes: Human Cγ1/Cκ constant regions; HEK-293
B2: hu3G8VH-12/hu3G8VL-1 (antibody, V domains shown)
VH: QVTLRESGPALVKPTQTLTLTCTFSGFSLSTSGMGVGWIRQPPGKALEWLAHIWWDDDKRYSPSLKSRLTISKDTSKNQVVLTMTNMDPVDTATYYCARINPAWFAYWGQGTLVTVSS
VL: DIVMTQSPDSLAVSLGERATINCKASQSVDFDGDSFMNWYQQKPGQPPKLLIYTTSNLESGVPDRFSGSGSGTDFTLTISSLQAEDVAVYYCQQSNEDPYTFGQGTKLEIK
notes: as for B1
B3: hu3G8VH-8/hu3G8VL-1 (antibody, V domains shown)
VH: QVTLRESGPALVKPTQTLTLTCTFSGFSLSTSGMGVGWIRQPPGKALEWLAHIWWDDDKRYNPALKSRLTISKDTSKNQVVLTMTNMDPVDTATYYCARINPAYFAYWGQGTLVTVSS
VL: DIVMTQSPDSLAVSLGERATINCKASQSVDFDGDSFMNWYQQKPGQPPKLLIYTTSNLESGVPDRFSGSGSGTDFTLTISSLQAEDVAVYYCQQSNEDPYTFGQGTKLEIK
notes: as for B1
B4: hu3G8VH-19/hu3G8VL-1 (antibody, V domains shown)
VH: QVTLRESGPALVKPTQTLTLTCTFSGFSLSTSGMGVGWIRQPPGKALEWLAHIWWDDDKRYNPALKSRLTISKDTSKNQVVLTMTNMDPVDTATYYCAQINPAYFAYWGQGTLVTVSS
VL: DIVMTQSPDSLAVSLGERATINCKASQSVDFDGDSFMNWYQQKPGQPPKLLIYTTSNLESGVPDRFSGSGSGTDFTLTISSLQAEDVAVYYCQQSNEDPYTFGQGTKLEIK
notes: as for B1
B5: hu3G8VH-29/hu3G8VL-1 (antibody, V domains shown)
VH: QVTLRESGPALVKPTQTLTLTCTFSGFSLSTSGVGVGWIRQPPGKALEWLAHIWWDDDKRYSPSLKSRLTISKDTSKNQVVLTMTNMDPVDTATYYCAHINPAYFDYWGQGTLVTVSS
VL: DIVMTQSPDSLAVSLGERATINCKASQSVDFDGDSFMNWYQQKPGQPPKLLIYTTSNLESGVPDRFSGSGSGTDFTLTISSLQAEDVAVYYCQQSNEDPYTFGQGTKLEIK
notes: as for B1
B6: hu3G8VH-14/hu3G8VL-1 (antibody, V domains shown)
VH: QVTLRESGPALVKPTQTLTLTCTFSGFSLSTSGMGVGWIRQPPGKALEWLAHIWWNDDKRYNPALKSRLTISKDTSKNQVVLTMTNMDPVDTATYYCARINPAWFAYWGQGTLVTVSS
VL: DIVMTQSPDSLAVSLGERATINCKASQSVDFDGDSFMNWYQQKPGQPPKLLIYTTSNLESGVPDRFSGSGSGTDFTLTISSLQAEDVAVYYCQQSNEDPYTFGQGTKLEIK
notes: as for B1
B7: hu3G8VH-16/hu3G8VL-1 (antibody, V domains shown)
VH: QVTLRESGPALVKPTQTLTLTCTFSGFSLSTSGMGVGWIRQPPGKALEWLAHIWWDDDKRYNPALKSRLTISKDTSKNQVVLTMTNMDPVDTATYYCAKINPAWFAYWGQGTLVTVSS
VL: DIVMTQSPDSLAVSLGERATINCKASQSVDFDGDSFMNWYQQKPGQPPKLLIYTTSNLESGVPDRFSGSGSGTDFTLTISSLQAEDVAVYYCQQSNEDPYTFGQGTKLEIK
notes: as for B1
B8: hu3G8VH-24/hu3G8VL-1 (antibody, V domains shown)
VH: QVTLRESGPALVKPTQTLTLTCTFSGFSLSTSGVGVGWIRQPPGKALEWLAHIWWDDDKRYSPSLKSRLTISKDTSKNQVVLTMTNMDPVDTATYYCAAINPAYFAYWGQGTLVTVSS
VL: DIVMTQSPDSLAVSLGERATINCKASQSVDFDGDSFMNWYQQKPGQPPKLLIYTTSNLESGVPDRFSGSGSGTDFTLTISSLQAEDVAVYYCQQSNEDPYTFGQGTKLEIK
notes: as for B1
B9: hu3G8VH-23/hu3G8VL-1 (antibody, V domains shown)
VH: QVTLRESGPALVKPTQTLTLTCTFSGFSLSTSGVGVGWIRQPPGKALEWLAHIWWDDDKRYSPSLKSRLTISKDTSKNQVVLTMTNMDPVDTATYYCAKINPAYFAYWGQGTLVTVSS
VL: DIVMTQSPDSLAVSLGERATINCKASQSVDFDGDSFMNWYQQKPGQPPKLLIYTTSNLESGVPDRFSGSGSGTDFTLTISSLQAEDVAVYYCQQSNEDPYTFGQGTKLEIK
notes: as for B1
B10: hu3G8VH-4/hu3G8VL-1 (antibody, V domains shown)
VH: QVTLRESGPALVKPTQTLTLTCTFSGFSLSTSGMGVGWIRQPPGKALEWLAHIWWDDDKRYNPALKSRLTISKDTSKNQVVLTMTNMDPVDTATYYCAQINPAWFDYWGQGTLVTVSS
VL: DIVMTQSPDSLAVSLGERATINCKASQSVDFDGDSFMNWYQQKPGQPPKLLIYTTSNLESGVPDRFSGSGSGTDFTLTISSLQAEDVAVYYCQQSNEDPYTFGQGTKLEIK
notes: as for B1
B11: hu3G8VH-36/hu3G8VL-1 (antibody, V domains shown)
VH: QITLKESGPTLVKPTQTLTLTCTFSGFSLSTSGVGVGWIRQPPGKALEWLALIWWDDDKRYSPSLKSRLTISKDTSKNQVVLTMTNMDPVDTATYYCAQINPAYFDYWGQGTLVTVSS
VL: DIVMTQSPDSLAVSLGERATINCKASQSVDFDGDSFMNWYQQKPGQPPKLLIYTTSNLESGVPDRFSGSGSGTDFTLTISSLQAEDVAVYYCQQSNEDPYTFGQGTKLEIK
notes: as for B1
B12: hu3G8VH-17/hu3G8VL-1 (antibody, V domains shown)
VH: QVTLRESGPALVKPTQTLTLTCTFSGFSLSTSGMGVGWIRQPPGKALEWLAHIWWDDDKRYNPALKSRLTISKDTSKNQVVLTMTNMDPVDTATYYCAAINPAWFAYWGQGTLVTVSS
VL: DIVMTQSPDSLAVSLGERATINCKASQSVDFDGDSFMNWYQQKPGQPPKLLIYTTSNLESGVPDRFSGSGSGTDFTLTISSLQAEDVAVYYCQQSNEDPYTFGQGTKLEIK
notes: as for B1
B13: hu3G8VH-30/hu3G8VL-1 (antibody, V domains shown)
VH: QVTLRESGPALVKPTQTLTLTCTFSGFSLSTSGVGVGWIRQPPGKALEWLAHIWWDDDKRYSPSLKSRLTISKDTSKNQVVLTMTNMDPVDTATYYCAQINPAYFDYWGQGTLVTVSS
VL: DIVMTQSPDSLAVSLGERATINCKASQSVDFDGDSFMNWYQQKPGQPPKLLIYTTSNLESGVPDRFSGSGSGTDFTLTISSLQAEDVAVYYCQQSNEDPYTFGQGTKLEIK
notes: as for B1
B14: hu3G8VH-25/hu3G8VL-1 (antibody, V domains shown)
VH: QVTLRESGPALVKPTQTLTLTCTFSGFSLSTSGVGVGWIRQPPGKALEWLAHIWWDDDKRYSPSLKSRLTISKDTSKNQVVLTMTNMDPVDTATYYCAHINPAYFAYWGQGTLVTVSS
VL: DIVMTQSPDSLAVSLGERATINCKASQSVDFDGDSFMNWYQQKPGQPPKLLIYTTSNLESGVPDRFSGSGSGTDFTLTISSLQAEDVAVYYCQQSNEDPYTFGQGTKLEIK
notes: as for B1
B15: hu3G8VH-27/hu3G8VL-1 (antibody, V domains shown)
VH: QVTLRESGPALVKPTQTLTLTCTFSGFSLSTSGVGVGWIRQPPGKALEWLAHIWWDDDKRYSPSLKSRLTISKDTSKNQVVLTMTNMDPVDTATYYCAKINPAYFDYWGQGTLVTVSS
VL: DIVMTQSPDSLAVSLGERATINCKASQSVDFDGDSFMNWYQQKPGQPPKLLIYTTSNLESGVPDRFSGSGSGTDFTLTISSLQAEDVAVYYCQQSNEDPYTFGQGTKLEIK
notes: as for B1
B16: hu3G8VH-6/hu3G8VL-1 (antibody, V domains shown)
VH: QVTLRESGPALVKPTQTLTLTCTFSGFSLSTSGVGVGWIRQPPGKALEWLAHIWWDDDKRYNPALKSRLTISKDTSKNQVVLTMTNMDPVDTATYYCARINPAWFDYWGQGTLVTVSS
VL: DIVMTQSPDSLAVSLGERATINCKASQSVDFDGDSFMNWYQQKPGQPPKLLIYTTSNLESGVPDRFSGSGSGTDFTLTISSLQAEDVAVYYCQQSNEDPYTFGQGTKLEIK
notes: as for B1
B17: hu3G8VH-28/hu3G8VL-1 (antibody, V domains shown)
VH: QVTLRESGPALVKPTQTLTLTCTFSGFSLSTSGVGVGWIRQPPGKALEWLAHIWWDDDKRYSPSLKSRLTISKDTSKNQVVLTMTNMDPVDTATYYCAAINPAYFDYWGQGTLVTVSS
VL: DIVMTQSPDSLAVSLGERATINCKASQSVDFDGDSFMNWYQQKPGQPPKLLIYTTSNLESGVPDRFSGSGSGTDFTLTISSLQAEDVAVYYCQQSNEDPYTFGQGTKLEIK
notes: as for B1
B18: hu3G8VH-5/hu3G8VL-1 (antibody, V domains shown)
VH: QVTLRESGPALVKPTQTLTLTCTFSGFSLSTSGMGVGWIRQPPGKALEWLAHIWWDDDKRYNPALKSRLTISKDTSKNQVVLTMTNMDPVDTATYYCAQINPAWFAYWGQGTLVTVSS
VL: DIVMTQSPDSLAVSLGERATINCKASQSVDFDGDSFMNWYQQKPGQPPKLLIYTTSNLESGVPDRFSGSGSGTDFTLTISSLQAEDVAVYYCQQSNEDPYTFGQGTKLEIK
notes: Human Cγ1/Cκ constant regions; HEK-293; also called Hu3G8-5.1; h3G8 5.1
B19: hu3G8VH-18/hu3G8VL-1 (antibody, V domains shown)
VH: QVTLRESGPALVKPTQTLTLTCTFSGFSLSTSGMGVGWIRQPPGKALEWLAHIWWDDDKRYNPALKSRLTISKDTSKNQVVLTMTNMDPVDTATYYCAHINPAWFAYWGQGTLVTVSS
VL: DIVMTQSPDSLAVSLGERATINCKASQSVDFDGDSFMNWYQQKPGQPPKLLIYTTSNLESGVPDRFSGSGSGTDFTLTISSLQAEDVAVYYCQQSNEDPYTFGQGTKLEIK
notes: as for B1
B20: hu3G8VH-1/hu3G8VL-1 (antibody, human IgG1, kappa)
heavy: not shown
light: DIVMTQSPDSLAVSLGERATINCKASQSVDFDGDSFMNWYQQKPGQPPKLLIYTTSNLESGVPDRFSGSGSGTDFTLTISSLQAEDVAVYYCQQSNEDPYTFGQGTKLEIKRTVAAPSVFIFPPSDEQLKSGTASVVCLLNNFYPREAKVQWKVDNALQSGNSQESVTEQDSKDSTYSLSSTLTLSKADYEKHKVYACEVTHQGLSSPVTKSFNRGEC
notes: HEK-293; also called Hu3G8-1.1

biological target: T1, soluble form of human CD16A (sCD16A) (human, UniProt P08637 17-203); assay: ELISA, sCD16A captured by mAb LNK-16
T1 construct: CD16A gene truncated just prior to the transmembrane region, expressed in HEK-293; The last seven residues come from vector pCDNA3.1; also called sFcRIIIa
Experimental: The plate was washed and dilutions of recombinant antibodies starting at 0.5 μg/ml in PBS-T-BSA were then added and incubated for 1 hr at room temp. […] After stopping color development using dilute sulfuric acid, the plate was read at 450 nm.

T1 sequence (P08637 other isoform, or with tags, fused parts or gaps limits assumed): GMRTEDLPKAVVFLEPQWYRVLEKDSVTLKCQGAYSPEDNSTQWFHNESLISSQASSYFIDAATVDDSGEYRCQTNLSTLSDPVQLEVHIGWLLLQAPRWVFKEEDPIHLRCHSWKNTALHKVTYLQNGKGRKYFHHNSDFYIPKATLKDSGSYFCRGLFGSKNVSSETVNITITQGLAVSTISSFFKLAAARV

Binding result, binds:
B1
B2
B3
B4
B5
B6
B7
B8
B9
B10
B11
B12
B13
B14
B15
B16
B17
B18
B19
B20
